Two molecules from patent US20190359711A1 can be followed below.

The target of assay [1] is CD3 on human pan T cells (human) (UniProt P07766). As to the kind of experiment: flow cytometry competition on human pan T cells; competitor tracer AlexaFluor488 SP34-2 at 16.6 nM.
Assay [2] has the same target. As to the kind of experiment: Kd derived from the competition IC50: Kd=IC50/(1+([T]/KdT)); human pan T cells.

Chain of CD3 on human pan T cells (human) (P07766 23-207 limits assumed): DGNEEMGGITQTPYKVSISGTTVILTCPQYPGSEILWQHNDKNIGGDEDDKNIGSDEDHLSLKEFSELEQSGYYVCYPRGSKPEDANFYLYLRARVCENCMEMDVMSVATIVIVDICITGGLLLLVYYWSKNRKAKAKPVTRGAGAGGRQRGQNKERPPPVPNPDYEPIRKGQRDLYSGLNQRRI

B1: CD3B376 monovalent construct (bispecific antibody, part only; not given: second arm, constant regions, V domains shown, not shown: another chain or arm of the molecule; a dimerising Fc or GST)
VH: QVQLQQSGPRLVRPSQTLSLTCAISGDSVFNNNAAWSWIRQSPSRGLEWLGRTYYRSKWLYDYAVSVKSRITVNPDTSRNQFTLQLNSVTPEDTALYYCARGYSSSFDYWGQGTLVTVSS
VL: QSALTQPASVSGSPGQSITISCTGTSSNIGTYKFVSWYQQHPDKAPKVLLYEVSKRPSGVSSRFSGSKSGNTASLTISGLQAEDQADYHCVSYAGSGTLLFGGGTKLTVL
One may read the IC50 as the concentration that inhibits the measured activity by half. High values mean a need for much substance, low ones inhibition by little substance. By Kd is commonly meant the free concentration of one partner at which half of the binding sites on the other are occupied at equilibrium, for simple one-to-one binding. A low value points to higher affinity. As to B1, the IC50 in assay [1] was found to be 409 nM. Further, the Kd in assay [2] was 103 nM.

B2: CD3B450 monovalent construct (bispecific antibody, part only; not given: second arm, constant regions, V domains shown, not shown: another chain or arm of the molecule; a dimerising Fc or GST)
VH: QVQLQQSGPGLVKPSQTLSLTCAISGDSVFNNNAAWSWIRQSPSRGLEWLGRTYYRSKWLYDYAVSVKSRITINPDTSKNQFSLQLNSVTPEDTAVYYCARGYSSSFDYWGQGTLVTVSS
VL: QSALTQPASVSGSPGQSITISCTGTSSNIGTYKFVSWYQQHPGKAPKVMIYEVSKRPSGVSNRFSGSKSGNTASLTISGLQAEDEADYYCVSYAGSGTLLFGGGTKLTVL
In the case of B2, in assay [1], the IC50 came to 1010 nM. Further, in assay [2], the dissociation constant (Kd) amounted to 254 nM.
